# Test results as given in patent US20260234276A1 (DOMAIN THERAPEUTICS, published 2026).
# Residue numbers refer to the chain shown, from its start. Several values for one entry are separate records, joined by “and”; a condition that tells them apart may be missing. Equal values may be shown once.
# B1: 3-53 (antibody, V domains shown)
# VH: QVQVQQSGAELARPGASVKMSCKASGYTFTTYAMHWVKQRPGQGLEWIGHINPSSGYSNYNQKFKDKATLTADKSSSTAYMQLSSLTSEDSAVYYCARSEVRRGYFDVWGAGTTVTVSS
# VL: DIQMTQTTSSLSASLGDRVTISCRTSQDIRNYLNWYQQKPDGTVKLLISYTSRLHSGVPSRFSGSGSGTDYSLTISNLEQEDFATYFCQQGNTLPPTFGGGTRVEIK
# B2: 3-13 (antibody, V domains shown)
# VH: KVQLQQSGPELVKPGASVKISCKTSGYTFTEYTIHWVQQIHGKSPEWIGGINPNGDTRYDQKFKGKATLTIDKSSSTAYMELRSLTSEDSAVYYCARVARFYGISPYAMDYWGQGTSVTVSS
# VL: DVVMTQTPLSLPVSLGDQASISCRCTQSLLHSNGDTYLHWYLQKPGQSPNLLIYKVSNRFSGVPDRFSGSGSGTDFTLKINRVEAEDLGVYFCSQSTHVPYTFGGGTNLEIK
# B3: 3-33 (antibody, V domains shown)
# VH: EVQLQQSGPELVKPGASVKISCKTSGYTFTEYTIHWVKQSHGESLEWVGGINPNNGNTRYDQKFKGKATLTIDKSSSPAYMELRSLTSEDSAVYYCARVARSSGSGPYAMDYWGQGTSVTVSS
# VL: B2 VL with S32T, N50K, N81S, N108K
# B4: 3-21 (antibody, V domains shown)
# VH: QVQLKESGPGLVAPSQSLSITCTVSGLSMNDYVVTWIRQPPGKGLEWLGVIWGGGNTYYNSDLKSRLSITKDNSKSQVFFKMSSLQTDDTAVYYCARRHRDYALDYWGQGISVTVSS
# VL: B2 VL with C25S, T26S, L30V, H31Y, D35N, N50K, N81S, H98Y, Y101P, N108K
# B5: 3-83 (antibody)
# heavy: not shown
# light: DIVMTQAAPSLSVTPGESASISCTSSKSLLHSNGNTYLYWFLQKPGQSPQLLIYRMSNLASGVPDRFSGSGSGTAFTLKISRVEAEDVGVYYCMQHREYPFTFGSGTKLEIKRTVAAPSVFIFPPSDEQLKSGTASVVCLLNNFYPREAKVQWKVDNALQSGNSQESVTEQDSKDSTYSLSSTLTLSKADYEKHKVYACEVTHQGLSSPVTKSFNRGEC
# B6: 3-85 (antibody)
# heavy: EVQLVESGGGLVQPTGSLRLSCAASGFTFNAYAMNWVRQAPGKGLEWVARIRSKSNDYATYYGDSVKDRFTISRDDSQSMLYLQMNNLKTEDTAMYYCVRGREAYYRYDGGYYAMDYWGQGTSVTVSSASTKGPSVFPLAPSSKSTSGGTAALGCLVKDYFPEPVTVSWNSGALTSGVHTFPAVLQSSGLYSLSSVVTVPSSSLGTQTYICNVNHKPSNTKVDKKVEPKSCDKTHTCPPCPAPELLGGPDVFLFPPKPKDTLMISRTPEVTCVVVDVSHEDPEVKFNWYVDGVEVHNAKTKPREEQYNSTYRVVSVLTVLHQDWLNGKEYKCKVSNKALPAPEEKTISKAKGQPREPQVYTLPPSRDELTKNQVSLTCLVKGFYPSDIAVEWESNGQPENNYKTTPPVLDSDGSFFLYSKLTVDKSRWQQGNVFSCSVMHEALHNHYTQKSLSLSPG
# light: B5 light with L11V, A19V, K44R, K79R
# B7: 3-50 (antibody, V domains shown)
# VH: EVQLQQSGPELVKPGASVKISCKASVYSFTGSYMHWVKQSHVKSLEWIGRINPYNGATSYNQNFKDKASLTVDKSSSTAYMELHSLTSEDSAVYYCATTLLRLLDYWGQGTTLTVSS
# VL: DIVMTQAAFSNPVTLGTSASISCRSSKSLLHSNGITYLYWYLQKPGQSPQLLIYQMSNLASGVPDRFSSSGSGTDFTLRISRVEAEDVGVYYCAQNLELPWTFGGGTKLEIK
# Biological target: pm5 (human, sulfated tyrosines at Y15 and Y17)
# Experiment: ELISA on coated peptide [cont.]
# How it was run: (§1)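 Anti-CCR8 mAbs tested at 1 μg/mL and then diluted 1/10 on CCR8-related peptides coated at 500 ng/mL in carbonate/bicarbonate buffer, 90 min at room temperature. Bound antibody developed with TMB for 15 min; optical density read as mAb reactivity.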
# pm5 (human, sulfated tyrosines at Y15 and Y17), sequence (peptide, as listed by the source): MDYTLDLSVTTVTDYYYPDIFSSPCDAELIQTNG
row,Binder,binding result
1,B1,binds
2,B2,binds
3,B3,binds
4,B4,binds

# Biological target: pm3 (human, sulfated tyrosine at Y17)
# Experiment: ELISA on coated peptide [cont.]
# How it was run: as §1
# pm3 (human, sulfated tyrosine at Y17), sequence (peptide, as listed by the source): as above
row,Binder,binding result
1,B1,binds
2,B2,binds
3,B3,binds
4,B4,binds

# Biological target: pm8 (human, sulfated tyrosines at Y15, Y16 and Y17)
# Experiment: ELISA on coated peptide [cont.]
# How it was run: as §1
# pm8 (human, sulfated tyrosines at Y15, Y16 and Y17), sequence (peptide, as listed by the source): as above
row,Binder,binding result
1,B1,binds
2,B2,binds
3,B3,binds
4,B4,binds

# Biological target: pm6 (human, sulfated tyrosines at Y16 and Y17)
# Experiment: ELISA on coated peptide [cont.]
# How it was run: as §1
# pm6 (human, sulfated tyrosines at Y16 and Y17), sequence (peptide, as listed by the source): as above
row,Binder,binding result
1,B1,binds
2,B2,binds
3,B3,binds
4,B4,binds

# Biological target: T1, human CCR8 (human, UniProt P51685 1-355)
# Experiment: cell-based or functional assay
row,Binder,"ADCP % Max of phagocytosis, monocyte-derived macrophages Donor 9 [%]"
1,B5,8.29
2,B6,7.27

# Biological target: T1, human CCR8
# Experiment: cell-based or functional assay
# Remark: another data set of the same source
Binder,"ADCC % Max lysis, NK cells Donor 1 [%]","ADCC % Max lysis, NK cells Donor 2 [%]","ADCC EC50, NK cells Donor 1 [nM]","ADCC EC50, NK cells Donor 2 [nM]"
B5,22,20,0.00224,0.00216
B6,31,26,0.0733,0.0904

# Biological target: T1, human CCR8
# Experiment: cell-based or functional assay
# Remark: another data set of the same source
Binder,"IC50 (Gi2 BRET, pH 6.5)","IC50 (Gi2 BRET, pH 7.4)"
B1,0.012 µg/ml and 0.08 nM,0.015 µg/ml and 0.097 nM
B7,0.162 µg/ml and 1.08 nM,0.152 µg/ml and 1.01 nM
B2,0.051 µg/ml and 0.34 nM,0.059 µg/ml and 0.396 nM
B4,0.414 µg/ml and 2.76 nM,0.359 µg/ml and 2.4 nM

# Biological target: T1, human CCR8
# Experiment: cell-based or functional assay
# Remark: another data set of the same source
row,Binder,"Top plateau value (% of hCCL1 100 nM) with 5 µg/mL mAb, Protocol #3 [%]"
1,B1,948
2,B7,292
3,B2,663
4,B3,855
5,B4,133

# Biological target: T1, human CCR8
# Experiment: flow cytometry, hCCR8 transfected CHOK1 cells
Binder,% positive cells [%],MFI fold change to isotype ctrl [fold]
B1,77,9.2
B7,34.7,2.34
B2,85.7,9.8
B3,56.2,4.78
B4,85.2,11.9

# Biological target: T1, human CCR8
# Experiment: flow cytometry, HUT78 cells (native CCR8)
# Method: The same staining protocol was applied on human CCR8 transfected CHO cell line versus wild type CHO cell line, cutaneous T cell lymphoma HUT78 cell line and human activated T cell model.
# Briefly, 1·10⁵ cells per well in a 96 well plate were incubated with a dilution of unconjugated anti-CCR8 mAb at 10 μg/mL then diluted at 1/3.33, 4 dilution points (during 30 min at 4° C.). […] To determine EC50 value, 8 concentrations of anti-CCR8 mAb were tested. Unbound antibodies were washed away with PBS (Invitrogen by Thermofisher Scientific, Illkirch-Graffenstaden, France) supplemented by 2% Fetal Bovine Serum (Invitrogen by Thermofisher Scientific, Illkirch-Graffenstaden, France) and 2 mM EDTA (Invitrogen by Thermofisher Scientific, Illkirch-Graffenstaden, France). Subsequently, cells are centrifuged (5 min at 400 g) and bound antibody is detected with F(ab′)₂-Goat anti-Mouse IgG (H+L) Cross-Adsorbed Secondary Antibody, Alexa Fluor 488 (dilution 1/500) (Invitrogen by Thermofisher Scientific, Illkirch-Graffenstaden, France) or with F(ab′)₂-Goat anti-Human IgG Fc Secondary Antibody, PE (Invitrogen by Thermofisher Scientific, Illkirch-Graffenstaden, France) (dilution 1/1000) at 4° C. for 30 min. Detection reagent is washed away and cells are centrifuged (5 min at 400 g) and resuspended in 30 μL PBS. Bound detection antibody is quantified on a MacsQuant16 (Miltenyi, Gladbach, Germany) (B1 or B2 channel, 5000 events per acquisition).
Binder,% of labelled cells [%],EC50 [nM]
B5,34,0.4

# Biological target: T1, human CCR8
# Experiment: cell-based or functional assay
# Remark: another data set of the same source
Binder,"hCCL1 (100 nM) residual response, Protocol #2, mAb 0.08 µg/mL [%]","hCCL1 (100 nM) residual response, Protocol #2, mAb 0.4 µg/mL [%]","hCCL1 (100 nM) residual response, Protocol #2, mAb 10 µg/mL [%]","hCCL1 (100 nM) residual response, Protocol #3, mAb 0.05 µg/mL [%]","hCCL1 (100 nM) residual response, Protocol #3, mAb 0.5 µg/mL [%]","hCCL1 (100 nM) residual response, Protocol #3, mAb 5 µg/mL [%]"
B1,52,68,53,76,62,59
B7,97,96,84,96,81,73
B2,101,93,100,92,81,73
B3,104,46,28,80,57,45
B4,99,97,97,99,84,75
